Among the data in article PMC7736295 (Cell Discovery, 2020) are Kd values, retold here.

B1: Mint1-CID (residues 338-397) [not stated] / CASK-CaMK (residues 1-337) [not stated] (parent)
chain 1: QRYSKEKRDAISLAIKDIKEAIEEVKTRTIRSPYTPDEPKEPIWVMRQDISPTRDCDDQR
chain 2: MADDDVLFEDVYELCEVIGKGPFSVVRRCINRETGQQFAVKIVDVAKFTSSPGLSTEDLKREASICHMLKHPHIVELLETYSSDGMLYMVFEFMDGADLCFEIVKRADAGFVYSEAVASHYMRQILEALRYCHDNNIIHRDVKPHCVLLASKENSAPVKLGGFGVAIQLGESGLVAGGRVGTPHFMAPEVVKREPYGKPVDVWGCGVILFILLSGCLPFYGTKERLFEGIIKGKYKMNPRQWSHISESAKDLVRRMLMLDPAERITVYEALNHPWLKERDRYAYKIHLPETVEQLRKFNARRKLKGAVLAAVSSHKFNSFYGDPPEELPDFSEDPTS

Variants of B1 are the subject of this experiment. The experiment can be described thus: ITC. As to conditions: with CASK-CaMK (residues 1-337); Mint1-CID mutant titrated into CASK(1-337).
In general, Kd refers to the constant that tells how readily two partners part at equilibrium. Consider chain 1 I15A I18A I22A, for which the Kd came out at 270 nM.
